The values that follow come from publication PMC10405849, “Soluble CD93 lectin-like domain sequesters HMGB1 to ameliorate inflammatory diseases” (Theranostics, 2023).

This test addresses T1, soluble recombinant human CD93 ectodomain protein rCD93D123 (Thr22-Lys580) (human, UniProt Q9NPY3 22-580).
T1 construct: CD93, human, ectodomain D1 (lectin-like domain) + D2 (five EGF-like repeats) + D3 (mucin-like domain), residues Thr22-Lys580; also called soluble rCD93; source: HEK293 cell protein expression system, purified (nickel-chelating Sepharose column)
T1 sequence (looked up): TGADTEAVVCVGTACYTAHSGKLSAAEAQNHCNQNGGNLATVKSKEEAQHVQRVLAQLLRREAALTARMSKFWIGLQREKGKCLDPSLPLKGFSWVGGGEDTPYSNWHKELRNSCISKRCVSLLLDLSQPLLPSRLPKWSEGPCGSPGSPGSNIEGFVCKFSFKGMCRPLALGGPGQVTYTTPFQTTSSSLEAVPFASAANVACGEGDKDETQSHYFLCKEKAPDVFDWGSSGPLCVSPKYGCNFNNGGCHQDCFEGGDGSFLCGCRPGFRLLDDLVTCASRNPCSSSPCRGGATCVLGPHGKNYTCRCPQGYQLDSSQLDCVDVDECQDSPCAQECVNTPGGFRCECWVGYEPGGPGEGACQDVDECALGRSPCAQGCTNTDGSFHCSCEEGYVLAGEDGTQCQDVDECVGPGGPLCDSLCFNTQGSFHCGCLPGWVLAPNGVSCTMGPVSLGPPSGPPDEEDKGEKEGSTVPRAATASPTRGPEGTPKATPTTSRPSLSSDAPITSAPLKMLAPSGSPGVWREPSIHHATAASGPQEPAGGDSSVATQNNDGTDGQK
As to the kind of experiment: co-IP; rCD93D123 (5 nM) and HMGB1 (5 nM) incubated 1 hour at 37 °C in 50 mM Tris-HCl, 100 mM NaCl, 0.25% Triton X-100, 1 mM MgCl2, 2 mM EGTA; precipitated with anti-HMGB1 antibody on protein A agarose overnight at 4 °C; blot with anti-c-Myc antibody. The note with it: both partners purified.

B1: recombinant human high-mobility group box 1 (HMGB1) protein (natural protein, UniProt P09429 1-215, looked up)
chain: MGKGDPKKPRGKMSSYAFFVQTCREEHKKKHPDASVNFSEFSKKCSERWKTMSAKEKGKFEDMAKADKARYEREMKTYIPPKGETKKKFKDPNAPKRPPSAFFLFCSEYRPKIKGEHPGLSIGDVAKKLGEMWNNTAADDKQPYEKKAAKLKEKYEKDIAAYRAKGKPDAAKKGVVKAEKSKKKKEEEEDEEDEEDEEEEEDEEDEDEEEDDDDE
notes: High-mobility group box 1 protein, human, recombinant; No catalogue number is printed; source: bought: R&D Systems
As for B1, the binding result is “binds”.
